Test results reported in PMC12430135, “A Unique Trimeric Assembly of Human Dishevelled 1 PDZ Domain in Crystal: Implication of Homo- and Hetero-Oligomerization During Wnt Signaling Process” (Molecules, 2025).

Tests used:
[1] = target: Dvl PDZ PDZ (Homo sapiens) (UniProt O14640); settings: cited from earlier work
[2] = target: the molecule itself; assay: crystal structure; hDvl1-PDZ at 8-9.5 mg/ml; vapor diffusion at 20 °C; 0.1 M sodium citrate pH 5.6, 0.5 M ammonium sulfate, 1.0 M lithium sulfate, 0.01 M glutathione, 0.01 M glutathione disulfide; 2.4 Å

Dvl C-terminus C-terminus (from UniProt O14640)
Kd [1]: 7 µM

B1: PDZ domain of human Dishevelled 1 (hDvl1-PDZ), residues 246-340 with CW338, 339AT (domain or fragment, UniProt O14640 246-340, looked up)
chain: SLNIVTVTLNMERHHFLGISIVGQSNDRGDGGIYIGSIMKGGAVAADGRIEPGDMLLQVNDVNFENMSNDDAVRVLREIVSQTGPISLTVAKATD
notes: Dishevelled 1 (Dvl1), human, PDZ domain, residues 246-340, with two amino acid substitutions (CW338, 339AT); 15N-labelled (M9 medium) for NMR; Calculated molecular weight of the monomer printed as 10,754; also called human Dvl1-PDZ; hDvl1-PDZ1
stoichiometry N [2]: 3
